Laboratory results published in US9221867B2, “Method for transporting a compound across the blood-brain barrier” (Angiochem Inc., priority 2003, dated 2015).

B1: Lactoferrin: comparison protein in transcytosis experiment (protein, UniProt P02788 20-710, looked up)
Lactotransferrin: GRRRSVQWCAVSQPEATKCFQWQRNMRKVRGPPVSCIKRDSPIQCIQAIAENRADAVTLDGGFIYEAGLAPYKLRPVAAEVYGTERQPRTHYYAVAVVKKGGSFQLNELQGLKSCHTGLRRTAGWNVPIGTLRPFLNWTGPPEPIEAAVARFFSASCVPGADKGQFPNLCRLCAGTGENKCAFSSQEPYFSYSGAFKCLRDGAGDVAFIRESTVFEDLSDEAERDEYELLCPDNTRKPVDKFKDCHLARVPSHAVVARSVNGKEDAIWNLLRQAQEKFGKDKSPKFQLFGSPSGQKDLLFKDSAIGFSRVPPRIDSGLYLGSGYFTAIQNLRKSEEEVAARRARVVWCAVGEQELRKCNQWSGLSEGSVTCSSASTTEDCIALVLKGEADAMSLDGGYVYTAGKCGLVPVLAENYKSQQSSDPDPNCVDRPVEGYLAVAVVRRSDTSLTWNSVKGKKSCHTAVDRTAGWNIPMGLLFNQTGSCKFDEYFSQSCAPGSDPRSNLCALCIGDEQGENKCVPNSNERYYGYTGAFRCLAENAGDVAFVKDVTVLQNTDGNNNEAWAKDLKLADFALLCLDGKRKPVTEARSCHLAMAPNHAVVSRMDKVERLKQVLLHQQAKFGRNGSDCPDKFCLFQSETKNLLFNDNTECLARLHGKTTYEKYLGPQYVAGITNLKKCSTSPLLEACEFLRK
B2: Transferrin: comparison protein, bovine holo-transferrin (protein, UniProt Q29443 20-704, looked up)
Serotransferrin: DPERTVRWCTISTHEANKCASFRENVLRILESGPFVSCVKKTSHMDCIKAISNNEADAVTLDGGLVYEAGLKPNNLKPVVAEFHGTKDNPQTHYYAVAVVKKDTDFKLNELRGKKSCHTGLGRSAGWNIPMAKLYKELPDPQESIQRAAANFFSASCVPCADQSSFPKLCQLCAGKGTDKCACSNHEPYFGYSGAFKCLMEGAGDVAFVKHSTVFDNLPNPEDRKNYELLCGDNTRKSVDDYQECYLAMVPSHAVVARTVGGKEDVIWELLNHAQEHFGKDKPDNFQLFQSPHGKDLLFKDSADGFLKIPSKMDFELYLGYEYVTALQNLRESKPPDSSKDECMVKWCAIGHQERTKCDRWSGFSGGAIECETAENTEECIAKIMKGEADAMSLDGGYLYIAGKCGLVPVLAENYKTEGESCKNTPEKGYLAVAVVKTSDANINWNNLKDKKSCHTAVDRTAGWNIPMGLLYSKINNCKFDEFFSAGCAPGSPRNSSLCALCIGSEKGTGKECVPNSNERYYGYTGAFRCLVEKGDVAFVKDQTVIQNTDGNNNEAWAKNLKKENFEVLCKDGTRKPVTDAENCHLARGPNHAVVSRKDKATCVEKILNKQQDDFGKSVTDCTSNFCLFQSNSKDLLFRDDTKCLASIAKKTYDSYLGDDYVRAMTNLRQCSTSKLLEACTFHKP
modifications: holo (iron-loaded)
B3: Melanotransferrin (p97): comparison protein, p97 obtained from Synapse Technologies (protein, UniProt P08582 20-709, looked up)
Melanotransferrin: GMEVRWCATSDPEQHKCGNMSEAFREAGIQPSLLCVRGTSADHCVQLIAAQEADAITLDGGAIYEAGKEHGLKPVVGEVYDQEVGTSYYAVAVVRRSSHVTIDTLKGVKSCHTGINRTVGWNVPVGYLVESGRLSVMGCDVLKAVSDYFGGSCVPGAGETSYSESLCRLCRGDSSGEGVCDKSPLERYYDYSGAFRCLAEGAGDVAFVKHSTVLENTDGKTLPSWGQALLSQDFELLCRDGSRADVTEWRQCHLARVPAHAVVVRADTDGGLIFRLLNEGQRLFSHEGSSFQMFSSEAYGQKDLLFKDSTSELVPIATQTYEAWLGHEYLHAMKGLLCDPNRLPPYLRWCVLSTPEIQKCGDMAVAFRRQRLKPEIQCVSAKSPQHCMERIQAEQVDAVTLSGEDIYTAGKTYGLVPAAGEHYAPEDSSNSYYVVAVVRRDSSHAFTLDELRGKRSCHAGFGSPAGWDVPVGALIQRGFIRPKDCDVLTAVSEFFNASCVPVNNPKNYPSSLCALCVGDEQGRNKCVGNSQERYYGYRGAFRCLVENAGDVAFVRHTTVFDNTNGHNSEPWAAELRSEDYELLCPNGARAEVSQFAACNLAQIPPHAVMVRPDTNIFTVYGLLDKAQDLFGDDHNKNGFKMFDSSNYHGQDLLFKDATVRAVPVGEKTTYRGWLGLDYVAALEGMSSQQC
B4: ceruloplasmin: comparison protein in transcytosis experiments (protein, UniProt P00450 20-1065, looked up)
Ceruloplasmin: KEKHYYIGIIETTWDYASDHGEKKLISVDTEHSNIYLQNGPDRIGRLYKKALYLQYTDETFRTTIEKPVWLGFLGPIIKAETGDKVYVHLKNLASRPYTFHSHGITYYKEHEGAIYPDNTTDFQRADDKVYPGEQYTYMLLATEEQSPGEGDGNCVTRIYHSHIDAPKDIASGLIGPLIICKKDSLDKEKEKHIDREFVVMFSVVDENFSWYLEDNIKTYCSEPEKVDKDNEDFQESNRMYSVNGYTFGSLPGLSMCAEDRVKWYLFGMGNEVDVHAAFFHGQALTNKNYRIDTINLFPATLFDAYMVAQNPGEWMLSCQNLNHLKAGLQAFFQVQECNKSSSKDNIRGKHVRHYYIAAEEIIWNYAPSGIDIFTKENLTAPGSDSAVFFEQGTTRIGGSYKKLVYREYTDASFTNRKERGPEEEHLGILGPVIWAEVGDTIRVTFHNKGAYPLSIEPIGVRFNKNNEGTYYSPNYNPQSRSVPPSASHVAPTETFTYEWTVPKEVGPTNADPVCLAKMYYSAVEPTKDIFTGLIGPMKICKKGSLHANGRQKDVDKEFYLFPTVFDENESLLLEDNIRMFTTAPDQVDKEDEDFQESNKMHSMNGFMYGNQPGLTMCKGDSVVWYLFSAGNEADVHGIYFSGNTYLWRGERRDTANLFPQTSLTLHMWPDTEGTFNVECLTTDHYTGGMKQKYTVNQCRRQSEDSTFYLGERTYYIAAVEVEWDYSPQREWEKELHHLQEQNVSNAFLDKGEFYIGSKYKKVVYRQYTDSTFRVPVERKAEEEHLGILGPQLHADVGDKVKIIFKNMATRPYSIHAHGVQTESSTVTPTLPGETLTYVWKIPERSGAGTEDSACIPWAYYSTVDQVKDLYSGLIGPLIVCRRPYLKVFNPRRKLEFALLFLVFDENESWYLDDNIKTYSDHPEKVNKDDEEFIESNKMHAINGRMFGNLQGLTMHVGDEVNWYLMGMGNEIDLHTVHFHGHSFQYKHRGVYSSDVFDIFPGTYQTLEMFPRTPGIWLLHCHVTDHIHAGMETTYTVLQNEDTKSG
B5: receptor-associated protein (RAP): LRP antagonist, receptor-associated protein (protein, UniProt P30533 35-357, looked up)
Alpha-2-macroglobulin …: YSREKNQPKPSPKRESGEEFRMEKLNQLWEKAQRLHLPPVRLAELHADLKIQERDELAWKKLKLDGLDEDGEKEARLIRNLNVILAKYGLDGKKDARQVTSNSLSGTQEDGLDDPRLEKLWHKAKTSGKFSGEELDKLWREFLHHKEKVHEYNVLLETLSRTEEIHENVISPSDLSDIKGSVLHSRHTELKEKLRSINQGLDRLRRVSHQGYSTEAEFEEPRVIDLWDLAQSANLTDKELEAFREELKHFEAKIEKHNHYQKQLEIAHEKLRHAESVGDGERVSRSREKHALLEGRTKELGYTVKKHLQDLSGRISRARHNEL

Tests used:
[1] = test system: bovine brain capillary endothelial cells (BBCECs); test: Transcytosis of 125I-proteins across BBCEC monolayers (in vitro blood-brain barrier model); settings: for Transcytosis: across in vitro BBB model; for Ratios Aprotinin/Protein / Ratios (x-fold), 125I-proteins transcytosis across BBCEC monolayers: aprotinin transcytosis divided by that of the named protein; for Ratios (x-fold), 125I-proteins transcytosis across BBCEC monolayers: 250 nM
Experimental: The model consists of a co-culture of bovine brain capillary endothelial cells and rat glial cells.
The in vitro model of BBB was established by using a co-culture of BBCECs and astrocytes. Prior to cell culture, plate inserts (Millicell-PC 3.0 μM; 30-mm diameter) were coated on the upper side with rat tail collagen. They were then set in six-well microplates containing the astrocytes and BBCECs were plated on the upper side of the filters in 2 mL of co-culture medium. This BBCEC medium was changed three times a week. Under these conditions, differentiated BBCECs formed a confluent monolayer 7 days later. Experiments were performed between 5 and 7 days after confluence was reached. The permeability coefficient for sucrose was measured to verify the endothelial permeability.
Briefly, after removing the meninges, the brain tissue was forced gently through a 82 μm nylon sieve. Astrocytes were plated on six-well microplates at a concentration of 1.2×10^5 cells/mL in 2 mL of optimal culture medium (DMEM) supplemented with 10% heat inactivated fetal bovine serum. The medium was changed twice a week.
Bovine brain capillary endothelial cells (BBCECs) were obtained from Cellial Technologies. The cells were cultured in the presence of DMEM medium supplemented with 10% (v/v) horse serum and 10% heat-inactivated calf serum, 2 mM of glutamine, 50 μg/mL of gentamycin, and 1 ng/mL of basic fibroblast growth factor, added every other day.
One insert covered with BBCECs was set into a six-well microplate with 2 mL of Ringer-Hepes and was pre-incubated for 2 h at 37° C. [^125I]-aprotinin, [^125I]-p97, [^125I]-ceruloplasmin or [^125I]-transferrin (250 nM final concentration) was added to the upper side of the filter covered with cells. At various times, the insert was transferred to another well to avoid a possible reendocytosis of [^125I]-proteins by the abluminal side of the BBCECs. At the end of experiment, [^125I]-proteins were assessed in 500 μL of the lower chamber of well by TCA precipitation.
Aprotinin, p97 and bovine holo-transferrin were iodinated with standard procedures using iodo-beads from Sigma™. Bovine holo-transferrin was diluted in 0.1M phosphate buffer, pH 6.5 (PB). P97 obtained from Synapse Technologies in neutralized citrate at pH 7.0 was dialyzed against this PB. Two iodo-beads were used for each protein. These beads were washed twice with 3 mL of PB on a Whatman™ filter and resuspended in 60 μL of PB. ^125I (1 mCi) from Amersham-Pharmacia biotech was added to the bead suspension for 5 minutes at room temperature. The iodination for each protein was initiated by the addition of 100 μg (80-100 μL).

[2] = test system: endothelial cell monolayers (in vitro blood-brain barrier model); test: Permeability coefficient (Pe) of proteins in the in vitro blood-brain barrier model
Experimental: The permeability coefficient (Pe) was calculated as:
At the end of the experiments, amounts of the radiotracers in the basolateral compartment were measured in a liquid scintillation counter. The permeability coefficient (Pe) for sucrose was calculated as previously described (Dehouck, M. P., Jolliet-Riant, P., Brée, F., Fruchart, J. C., Cecchelli, R., Tillement, J. P., J. Neurochem. 58:1790-1797, 1992) using filters coated or non-coated with EC.
The transport of Angio-pep1 from the apical-to-basolateral side of inserts covered with or without endothelial cell monolayers was measured. The results are expressed as the clearance of Angio-pep1 as a function of time. The slopes correspond to the permeability of the peptide through the filter alone (Psf) and to the total permeability of the endothelial cell monolayers (Pst).
The permeability coefficients for Angio-pep1, aprotinin, leptin and transferrin were determined using the in vitro blood-brain barrier model. The permeability coefficient (Pe) was calculated as described above.

Row | Molecule | Transcytosis [1] [pmol/h/cm^2] | Ratios Aprotinin/Protein [1] | Ratios (permeability coefficients) ([2]; Pe of Angio-pep1 divided by Pe of the named protein) | Permeability coefficient (Pe) ([2]; in vitro blood-brain barrier model) [×10⁻⁶ cm/s] | Ratios (x-fold), 125I-proteins transcytosis across BBCEC monolayers [1] [x-fold] | effect on aprotinin transcytosis ([1]; [125I]-aprotinin 250 nM with or without RAP, 37° C., FIG. 14)
1 | B1 | 0.05 | 50 |  |  |  | 
2 | B2 | 0.14 | 19 | 210 | 0.095 | 11.6 | 
3 | B3 | 0.28 | 10 |  |  | 8.2 | 
4 | B4 |  |  |  |  | 44.0 | 
5 | B5 |  |  |  |  |  | inhibition
